# Where no end group is shown, it is not given here.
# Test: PRM target quantification of synthetic mAb peptide standards diluted with DDM, FA or cell digest matrix
# Type: physicochemical
# Conditions: 10 fmol/μl peptide mixture, triplicate; for Ratio of Average Peak Area DDM Diluted/FA Diluted: 0.015% DDM vs 0.1% FA (control); for Ratio of Average Peak Area Matrix Diluted/FA Diluted: complex HeLa cell lysate digest matrix vs 0.1% FA (control)
# Protocol: HeLa cell lysate protein digests were diluted to 0.05 ng/μL by 0.1% FA or 0.015% DDM solution, and 0.2 ng (4 μL) was injected onto the LC-MS to simulate single cell sample analysis. Sixteen synthetic peptides from a mAb's constant region and CDR were diluted and mixed to a final concentration of 10 fmol/μL by 0.1% FA, 0.015% DDM solution or complex cell digest matrix. In reconstitution experiments, 20 μL of 500 fmol/μL BSA digests and 200 ng/μL HeLa digests were aliquoted into vials and dried in vacuo. Dried samples were reconstituted by 0.1% FA or 0.015% DDM solution. One picomole BSA digests and 100 ng HeLa digests were loaded onto the column for nanoLC-MS/MS analysis.
# PRM target quantification was performed on an Orbitrap Exploris 480 mass spectrometer equipped with an UltiMate 3000 RSLCnano system and 75 μm ID×25 cm C18 column (CoAnn Technologies, 360 μm OD). A short gradient with a flow rate of 0.3 μL/min was set up as follows: 5% B at 0 min, 8% B at 3 min, 40% B at 20 min, and 95% B from 30-35 min. The m/z of the most intense surrogate peptide peak was selected for PRM analysis with 5 minutes windows. MS/MS spectra were acquired using HCD with a normalized collision energy of 30% at a resolution of 30K (m/z 200) and a maximum injection time of 100 ms.
# Database searches for protein identification were performed using SEQUEST and Mascot embedded into Proteome Discoverer 2.2 (Thermo Fisher Scientific). The human UniProt target-decoy protein database including common contaminants was used for HeLa sample database searches. Precursor ion mass tolerance was set to 20 ppm and fragment ion mass tolerance was set to 0.02 Da. Trypsin was specified as the digestion enzyme during the database search with one missed cleavage allowed. Methionine oxidation (+16 Da) was selected as a variable modification and cysteine carbamidomethylation was chosen as a fixed modification for the normal (alkylated) digests. False discovery rates (FDRs) were set to 1% for peptide identification and 5% for protein identification. Peptide mapping and BSA sample data were analyzed using Protein Metrics Byonic™ (version 3.11.3) by searching the raw files against the mAb or BSA protein sequence. All peptide quantification was executed using Skyline Daily software (University of Washington, WA) by extracting the MS' peak area of all detected charge states. The three most intense fragment peaks free of interference were selected for PRM target quantification. Empower (Milford, MA) was employed to extract UV chromatogram peak areas. The peptide hydrophobicity was calculated using the Peptide Synthesis and Proteotypic Peptide Analyzing Tool from ThermoFisher Scientific (Waltham, MA). GraphPad Prism 9.0.2 (San Diego, CA) was used for correlation analysis and p-value calculation.
# In order to optimize a method for characterizing peptides for PK studies, sixteen peptides from different mAb molecules, including 13 CDR peptides and three constant region peptides, were selected and synthesized. Information for the synthetic peptide standards, including stock concentration, dilution, hydrophobicity index value, and retention time is shown in Table 1. All synthetic peptide standards were diluted and mixed as a single peptide mixture with a final concentration of 10 fmol/μl using either a DDM solution, formic acid solution (control) or complex HeLa cell lysate digest matrix. PRM acquisition was then used to quantify the peak area of these 16 target peptides and compare results between different samples. Detailed PRM setting information is listed in Table 2 including m/z value and charge states of each target peptide. Each sample was analyzed in triplicate, and average peak areas for each peptide from the DDM prepared samples and matrix prepared samples were compared with the control samples.
Substance,Ratio of Average Peak Area DDM Diluted/FA Diluted,Ratio of Average Peak Area Matrix Diluted/FA Diluted
DNSLTAPYVFGTGTK [synthetic mAb CDR peptide standard],1.4,1.1
LSCAASGFTFSNYAMYWVR [synthetic mAb CDR peptide standard],29.4,9.2
"LLIYAASNLETGVPSR (also: Arg16 stable isotope labeled, +10 Da) [synthetic mAb CDR peptide standard]",5.5,2.7
GLEWVAVISYDGSNK [synthetic mAb CDR peptide standard],10.3,4.7
DWNQNNWF [synthetic mAb CDR peptide standard],2.4,3.0
NQVSLTCLVK [synthetic mAb constant region peptide standard],0.7,1.1
TNYLTHR [synthetic mAb CDR peptide standard],1.7,0.4
LMIYDVSK [synthetic mAb CDR peptide standard],1.1,1.3
DIATYYCQQH [synthetic mAb CDR peptide standard],1.1,1.4
LSCAASGITFSNAWMSWVR [synthetic mAb CDR peptide standard],37.9,16.9
LLIYDASNLK [synthetic mAb CDR peptide standard],1.2,1.4
VTISCTGSSSNIGTHY [synthetic mAb CDR peptide standard],1.1,1.4
VVSVLTVLHQDWLNGK [synthetic mAb constant region peptide standard],12.1,33.2
DTAVYYCASGS [synthetic mAb CDR peptide standard],0.9,0.6
TNYLKPTHQTNTIIDVVLSPSH [synthetic mAb constant region peptide standard],18.4,32.1

# From US12699101B2, “Maximizing hydrophobic peptide recovery using a mass spectrometry compatible surfactant” (Regeneron Pharmaceuticals, Inc., priority 2022, dated 2026)
